Consider one molecule from EP3366704A1 (Affimed GmbH, dated 2018).

Broadly, the Kd is a measure of binding affinity in units of concentration. Read a high Kd as a looser complex.

The target of assay [1] is T1, MMP1-003 peptide/HLA-A2 complex (on MMP1-003 peptide-pulsed T2 cells or HLA-A2+/MMP1+ tumor cells) (human). Description: cell-based or functional assay.
For assay [2], the target named is T1, MMP1-003 peptide/HLA-A2 complex (on …). The assay can be described thus: flow cytometry on MMP1-003 peptide-pulsed T2 cells, mean of two experiments. For orientation: Flow cytometry measures light scatter and fluorescence of single cells or particles in a stream.
Assay [3] addresses T2, cynomolgus CD3 (on HSC-F cells) (cynomolgus, UniProt Q95LI5 22-198).
T2 construct: whole, on cells; CD3 is a complex of several chains; also called Cyno CD3^+ HSC-F
The assay can be described thus: flow cytometry on cynomolgus CD3+ HSC-F cells, on ice, one-site binding fit, mean of 2 experiments.

Assay [4] concerns the target T1, MMP1-003 peptide/HLA-A2 complex (on …). The assay can be described thus: flow cytometry on MMP1-003 peptide-pulsed T2 cells.
The target is the same in assay [5]. The assay can be described thus: cell-based or functional assay. The source holds these as a separate data set.
For assay [6], the target named is T3, HLA-A2 on non-pulsed T2 cells (no peptide added) (human).
T3 construct: whole, on cells
The assay can be described thus: flow cytometry on non-pulsed T2 cells, mean of two experiments.

Assay [7] addresses T4, human CD3 (on Jurkat cells or primary human T-cells) (human, UniProt P07766 23-207).
T4 construct: whole, on cells; CD3 is a complex of several chains; also called Human CD3^+ Jurkat; Human CD3^+ primary T-cells
The assay can be described thus: flow cytometry on human CD3+ primary T-cells, on ice, one-site binding fit, mean of 2 experiments.

For assay [8], the target named is T4, human CD3 (on Jurkat cells or primary …). Description: flow cytometry on human CD3+ Jurkat cells, on ice, one-site binding fit, mean of 2 experiments.

T4 sequence (P07766 23-207): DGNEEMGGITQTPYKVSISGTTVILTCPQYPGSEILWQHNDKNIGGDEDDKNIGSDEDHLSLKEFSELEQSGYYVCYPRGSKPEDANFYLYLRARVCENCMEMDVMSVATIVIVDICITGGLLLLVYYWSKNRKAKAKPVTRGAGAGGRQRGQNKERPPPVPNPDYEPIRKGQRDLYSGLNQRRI
T2 sequence (Q95LI5 22-198): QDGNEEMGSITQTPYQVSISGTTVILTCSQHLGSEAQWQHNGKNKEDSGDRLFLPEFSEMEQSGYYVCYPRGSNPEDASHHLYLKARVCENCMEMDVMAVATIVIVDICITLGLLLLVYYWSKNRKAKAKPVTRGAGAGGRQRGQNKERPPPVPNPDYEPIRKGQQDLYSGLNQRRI

B1: TandAbCD3 2 (anti-HLA-A2^MMP1-003/CD3 tandem diabody, target domain A02) (bispecific antibody)
chain: DIQMTQSPSSLSASVGDRVTITCRSSTGAVTTSNYANWVQQKPGKAPKALIGGTNKRAPGVPSRFSGSLIGDKATLTISSLQPEDFATYYCALWYSNLWVFGQGTKVEIKGGSGGSEVQLVESGGGVVQPGRSLRLSCAASGFTFSSYAMHWVRQAPGKGLEWVAVISYDGSNKYYADSVKGRFTISRDNSKNTLYLQMNSLRTEDTAVYYCARDGGYYHYGLDVWGQGTTVTVSSGGSGSYELTQPPSVSVSPGQTASITCSGDKLGDKYASWYQRKPGQSPVLLIYQDAKRPSGIPERFSGSNSGNTATLTISGTQAMDEADYYCQAWDSSTGVFGGGTKLTVLGGSGGSEVQLVESGGGLVQPGGSLRLSCAASGFTFSTYAMNWVRQAPGKGLEWVGRIRSKYNNYATYYADSVKDRFTISRDDSKNSLYLQMNSLKTEDTAVYYCARHGNFGNSYVSYFAYWGQGTLVTVSSAAAGSHHHHHH
notes: Non-covalent homodimer; C-terminal 6xHis tag; also called TandAbCD3 2 T717; T717
On to B1, for which the “EC50 of target cell lysis, 4 h calcein-release cytotoxicity assay, MMP1-003-pulsed T2 cells, human T-cells E:T 25:1” value in assay [1] was 0.0009 nM. The Kd in assay [2] was 39.2 nM; in assay [3], 2.8 nM; in assay [6], above 500 nM; in assay [7] it was 2.2 nM; in assay [8], 3.6 nM. The “fold higher apparent affinity than the corresponding scFv A02” value in assay [4] was above 2 fold. Besides, the “Mean EC50 of target cell lysis, 4 h calcein-release assay, B-CPAP (HLA-A2+/MMP1+), human T-cells E:T 25:1” value in assay [5] was 0.0669 nM. Also, the “Mean EC50 of target cell lysis, 4 h calcein-release assay, SW-982 (HLA-A2+/MMP1+), human T-cells E:T 25:1” value in assay [5] is 0.0302 nM.
